{"source": "paper PMC11713712", "about": "“PFTAIRE peptide degrading cyclin Y and ameliorating cognitive deficits in mouse models of Alzheimer’s Disease” (Alzheimer's & Dementia, 2025)", "key": {"[1]": {"biological_target": "T1, CCNY protein (Homo sapiens, UniProt Q8ND76)", "T1 sequence (Q8ND76 whole entry, species assumed)": "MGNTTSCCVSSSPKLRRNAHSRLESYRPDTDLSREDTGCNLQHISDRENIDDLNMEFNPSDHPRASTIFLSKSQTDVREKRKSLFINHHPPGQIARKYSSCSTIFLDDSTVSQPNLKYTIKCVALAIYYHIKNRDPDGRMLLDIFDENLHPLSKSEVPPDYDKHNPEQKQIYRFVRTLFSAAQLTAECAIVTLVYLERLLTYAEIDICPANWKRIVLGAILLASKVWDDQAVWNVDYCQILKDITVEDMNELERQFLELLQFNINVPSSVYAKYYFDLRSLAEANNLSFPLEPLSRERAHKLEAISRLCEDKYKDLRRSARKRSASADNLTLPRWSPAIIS", "assay": "CCNY protein level", "description": "(§1) Utilizing solid‐phase peptide synthesis, PFTAIRE peptide was produced."}, "[2]": {"tested_on": "AD mouse models", "assay": "Behavior tests in AD mouse models after intravenous injection", "type": "in vivo", "conditions": "intravenously injected", "description": "as §1"}, "[3]": {"description": "Abstract Background Cyclin Y (CCNY) is a member of cyclin protein family inhibiting long‐term synaptic plasticity, which is related to the learning and memory function in neuronal system. Recently, CCNY has been reported to associate with the cognitive deficits in Alzheimer’s disease (AD). […] This peptide is derived from the domain of cyclin‐dependent kinase 14, a kinase degrading CCNY protein, and this domain is essential for the binding to CCNY. Utilizing solid‐phase peptide synthesis, PFTAIRE peptide was produced. […] We intravenously injected PFTAIRE peptide to AD mouse models and performed behavior tests."}, "[4]": {"biological_target": "T1, CCNY protein", "assay": "Binding of PFTAIRE peptide to CCNY protein in in vitro studies", "description": "as §1"}}}
{"substance": "PFTAIRE peptide: Peptide derived from the domain of cyclin‐dependent kinase 14 essential for binding to CCNY; produced by solid‐phase peptide synthesis", "values": [{"measurement": "CCNY protein level", "setting": "[1]", "result": "diminish CCNY protein level"}, {"measurement": "memory impairments in behavior tests", "setting": "[2]", "result": "prevents memory impairments"}, {"measurement": "plasma stability", "setting": "[3]", "result": "confirmed the plasma and liver microsomal stability"}, {"measurement": "liver microsomal stability", "setting": "[3]; liver microsomes", "result": "confirmed the plasma and liver microsomal stability"}, {"measurement": "binding to CCNY protein", "setting": "[4]", "result": "binds to CCNY protein"}]}
